In this assay the target is GLP-1 receptor on RIN-m5F rat insulinoma cells (rat) (UniProt P32301). The experiment in a line: cell-based or functional assay.

Among the data in US9422349 are cAMP production in RIN-m5F cells, EC50 and cAMP production in RIN-m5F cells, ratio vs Exendin4 (ratio vs Exendin4) values, retold here.

Sequence of UniProt P32301 (P32301 22-463): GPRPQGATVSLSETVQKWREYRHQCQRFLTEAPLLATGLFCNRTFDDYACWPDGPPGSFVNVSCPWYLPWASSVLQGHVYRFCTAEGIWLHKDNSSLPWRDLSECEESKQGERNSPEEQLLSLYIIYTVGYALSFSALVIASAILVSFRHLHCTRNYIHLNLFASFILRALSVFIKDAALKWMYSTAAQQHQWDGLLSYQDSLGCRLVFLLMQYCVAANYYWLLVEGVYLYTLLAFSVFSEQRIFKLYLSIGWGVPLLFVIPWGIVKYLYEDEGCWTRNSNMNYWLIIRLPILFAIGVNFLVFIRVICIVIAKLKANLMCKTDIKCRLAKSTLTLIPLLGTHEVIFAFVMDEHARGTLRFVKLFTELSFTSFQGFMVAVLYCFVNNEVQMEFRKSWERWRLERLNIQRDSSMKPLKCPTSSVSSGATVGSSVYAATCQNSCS

For the substance “imidazoacetyl-exendin-4 (from UniProt P26349 48-86) (peptide)”, the cAMP production in RIN-m5F cells, EC50 was 1.2 nM and the cAMP production in RIN-m5F cells, ratio vs Exendin4 (ratio vs Exendin4) was 100.
For “desamino-histidyl-exendin-4 (from UniProt P26349 48-86) (peptide)” the same measures were 0.95 nM and 127.
